Data set [1] deals with WEHI-3B. The data set can be described thus: Transplant of Ido1-edited WEHI-3B cells into mice. In kind it is in vivo, mouse. Conditions: edited WEHI-3B cells versus Cas9-only. As for the experimental part: All leukemia models were introduced by intravenous (i.v.) injection and transplanted into non-irradiated secondary recipient experimental animals. BALB/c mice were used for the WEHI-3B leukemia model (0.5×10^6/cells/mouse) and C57BL/6J mice for MLL/AF9-dsRed (0.2×10^6/cells/mouse). Leukemia progression was assessed by fluorescence (MLL/AF9 dsRed) using the IVIS-Spectrum Optical Imaging System (Caliper, Perkin Elmer). Mice were shaved to reduce light attenuation.
The chemically modified sgRNAs targeting IDO1 were obtained and designed with at least 3 mismatches to decrease possible off target effects with the Synthego CRISPR design tool or the CRISPOR. […] In addition, lack of random effects due to TP53 activation, was shown by p16 and p21 mRNA level assessment in Cas9-only controls as well as in all the sgRNAs used. For 10^6 cells, 3 μg of TrueCut Cas9 protein V2 (Invitrogen) and 1.5 μg sgRNA were mixed in either SE (immortalized cell lines WEHI-3B and OCI-AML3) or P3 (primary mouse MLL/AF9 or patient-derived AML cells) buffer (Lonza, Amaxa X-Nucleofector Kit) and incubated 10 mins. Cells were then resuspended in their respective nucleofection buffer, mixed with the Cas9/sgRNA RNP complex or the Cas9 only as control, and electroporated with the Lonza 4D-Nucleofector (program DZ100, CM137 or DI100). […]

A further data set has as its system IDO1. The data set can be described thus: CRISPR/Cas9 Ido1 editing of primary murine MLL/AF9 cells. Type of data set: cell-based, mouse. Conditions: Ido1 exon 3, MLL/AF9 cells. The method, then: The chemically modified sgRNAs targeting IDO1 were obtained and designed with at least 3 mismatches to decrease possible off target effects with the Synthego CRISPR design tool or the CRISPOR. […] In addition, lack of random effects due to TP53 activation, was shown by p16 and p21 mRNA level assessment in Cas9-only controls as well as in all the sgRNAs used. For 10^6 cells, 3 μg of TrueCut Cas9 protein V2 (Invitrogen) and 1.5 μg sgRNA were mixed in either SE (immortalized cell lines WEHI-3B and OCI-AML3) or P3 (primary mouse MLL/AF9 or patient-derived AML cells) buffer (Lonza, Amaxa X-Nucleofector Kit) and incubated 10 mins. Cells were then resuspended in their respective nucleofection buffer, mixed with the Cas9/sgRNA RNP complex or the Cas9 only as control, and electroporated with the Lonza 4D-Nucleofector (program DZ100, CM137 or DI100). After electroporation, cells were cultured in their respective media at 37° C. until sequencing analysis and/or injection. The editing efficiency data, indel contribution and Sanger sequence analyses were performed with the Synthego Performance Analysis, ICE Analysis. 2019. v2.0. (Synthego).

The next data set relates to MLL/AF9 cells. Put plainly: Transplant of Ido1-edited MLL/AF9 cells into WT non-irradiated recipients. In kind it is in vivo, mouse. Conditions: exon-3-edited MLL/AF9 cells versus Cas9-only.
For a further data set, the system named is human AML cell lines. The data set can be described thus: WST-8 proliferation of human AML cell lines exposed to SAA1. Type of data set: cell-based. Conditions: SAA1 1 μg/ml, 24-72 h, versus vehicle. As for the experimental part:
(§1) Treatments with recombinant proteins: human IL-1α, IL-1β, IL-6, IL-33, IL-34, CXCL1, CXCL3, CXCL5, CXCL8, CCL2, CCL20, Apo-SAA1 (all from Peprotech) and recombinant mouse SAA3 (Cusabio) were performed by o/n treatment with 50 ng/ml of the corresponding protein. SAA1 treatment of human AML cell lines was done with 1 μg/ml for 24, 48 or 72 h. Treatment of primary human MDS or AML lineage-depleted BM-MNCs was done with 5 μg/ml for 24 h. Treatment of PDX isolated human total BM cells was done with 1 μg/ml for 24 h.
(§2) Cell proliferation was performed by using Cell Counting Kit 8 (WST-8, Abcam) as per manufacturer's instructions. Briefly, 0.03×10^6 cells were seeded on tissue-culture clear bottom microplates (Corning) in their corresponding media (100 μl). When indicated, cells were treated with the indicated compounds and for the indicated time points. 10 μl/well of WST-8 solution was added and incubated for 2 h at 37° C. before measuring absorbance at 460 nm. For each experiment, the absorbance of the blank wells (growth media and vehicle/treatment) was subtracted from the values for those wells with cells.
In vitro: the indicated cell lines were incubated in reduced-serum media and exposed to SAA1 (1 μg/ml) for the 24-72 h as indicated.
For orientation: Tetrazolium dyes change colour on reduction, which living cells bring about.

In a further data set the test system is OCI-AML3 cells. Put plainly: IDO1 mRNA in OCI-AML3 cells exposed to recombinant osteoblast-secreted molecules. In kind it is cell-based, human. Conditions: o/n treatment, 50 ng/ml. As for the experimental part: as §1
(§3) RNA isolation, cDNA preparation and real-time PCR analyses were carried out following standard protocols. Total RNA from cortical bone (clean, flushed femurs, were centrifugated 20 seconds at 10.000 g's to remove any remaining BM) was extracted using TRIzol (Invitrogen) followed by RNA clean-up using PureLink RNA Mini Kit (Ambion, Invitrogen). mRNA was reversed transcribed using random hexamers RNA-to-cDNA kit (Takara). Specific forward and reverse primers were used in conjunction with PowerUp SYBR Green Master Mix (Applied Biosystems) for quantitative PCR. Expression levels were analyzed using the 2^−ΔΔCt method and were normalized for the expression of the housekeeping gene Hprt unless otherwise stated.

Data set [2] deals with leukemic blasts (hCD45+CD33+). The data set can be described thus: In vivo SAA1 treatment of PDX mice, Edu cell cycle analysis of leukemic blasts. Details: species or system mouse. As for the experimental part: SAA1 (Peprotech Cat #300-53) treatment: for short-term treatment (2 days), mice were injected intra venous (i.v.) 72 h and 48 h before harvesting. For long-term treatment (8-days), mice received daily i.v. injections. In order to get the same SAA1 concentration in blood that the one used in vitro, we used a dosage of 100 μg/kg of SAA1, diluted in 0.9% NaCl. Assuming a 20 g body weight, 2 ml total blood volume, and an even distribution in the mouse, systemic concentration of SAA1 should be approximately 1 μg/ml.
4-6 weeks old NSG (CDX model) or NSGS (PDX model) mice were pre-conditioned with sublethal (1.4 Gy) total-body irradiation. 24 h after, 1×10^6 OCI-AML3 or 2×10^5 human BM CD34^+ (healthy) or primary AML patient samples were injected i.v. Engraftment levels were monitored and mice were randomized after BM aspiration 3-4 weeks later and immunophenotyped by the presence of mCD45 (BioLegend Cat #103133, RRID: AB_10899570), hCD45 (BioLegend Cat #368512, RRID: AB_2566372), hCD33 (BioLegend Cat #303404, RRID: AB_314348), hCD34 (BioLegend Cat #343518, RRID: AB_1937203) cell populations. For the low-burden PDX model (kynurenine injections), mice were treated 1 week after transplant.
Cell labelling was done by i.p. injection of mice with 50 mg/kg of freshly prepared 5-Ethynyl-2′-deoxyuridine-Edu-(Cayman Chemical Company Cat #20518). After 3-4 h, BM was harvested, and human cells were negatively selected by mouse cell depletion using mouse CD45 magnetic beads (Miltenyi). The human BM cells were then stained CD45 and CD33 to identify the leukemic blast. Cell cycle/proliferation analysis was performed using the Click-iT Plus EdU Flow Cytometry Assay Kit (Invitrogen, Cat #C10420) following manufacturers' instructions. Fixable viability dye (Biolegend) was used to discriminate the death population. Single color controls were used to set compensations and fluorescence minus one control were used to set gates. Analysis was performed with FlowJo software.

The subject of data set [3] is human BM cells from PDX healthy or PDX AML mice. Put plainly: Ex vivo total human BM cells isolated from PDX mice exposed to SAA1. In kind it is cell-based. Conditions: SAA1 1 μg/ml, 24 h. As for the experimental part: as §1, §2
Ex vivo xenografts (healthy CD34^+ versus patient-derived AML): total BM from NSGS mice was depleted of mouse cells with mouse CD45 magnetic beads (Miltenyi Biotec Cat #130-052-301, RRID: AB_2877061) and negatively selected human cells used.

The next data set deals with WEHI-3B cells. Put plainly: Ido1 mRNA in WEHI-3B cells exposed to recombinant SAA. Conditions: o/n treatment. Type of data set: cell-based, mouse. The method, then:
as §1, §3

In data set [4] the test system is human AML and MDS cell lines. Put plainly: mRNA levels in human AML and MDS cell lines exposed to SAA1. In kind it is cell-based. The method, then:
as §1, §3

Another data set has as its system AML and MDS BM MNCs. Put plainly: Ex vivo lineage-depleted AML and MDS patient BM MNCs exposed to SAA1. In kind it is cell-based, human. Conditions: SAA1 5 μg/ml, 24 h. The method, then: as §1, §2
Ex vivo primary AML and MDS patient's samples: MNCs from fresh BM patients' aspirates were isolated as previously described and depleted from mature hematopoietic cells (lineage Cell Depletion Kit, Miltenyi Biotec Cat #130-092-211). […]

In data set [5] the test system is WEHI-3B. The data set can be described thus: WST-8 proliferation of mouse WEHI-3B AML cells exposed to SAA3. Type of data set: cell-based. Conditions: SAA3 1 μg/ml, 24-72 h, versus vehicle.
[6] abbreviates: SAA1 i.v., 2- and 8-day treatments.

In the case of “sgRNA #146: mouse sgRNA targeting Ido1 exon 3: CGCCAUGGUGAUGUACCCCA GGG (guide CGCCAUGGUGAUGUACCCCAGGG; listed as RNA, chemistry not fully specified)”, the survival entry in the data set on WEHI-3B [1] was “significant increased survivals”. The same molecule registered a deletion efficiency with IDO1 of around 56%. Moreover, the disease progression entry in the data set on MLL/AF9 cells is recorded as “abrogated”.

B1: SAA1: recombinant human acute-phase protein serum amyloid A1 (Peprotech) (protein, UniProt P0DJI8 19-122, looked up)
Serum amyloid A-1 protein: RSFFSFLGEAFDGARDMWRAYSDMREANYIGSDKYFHARGNYDAAKRGPGGAWAAEVITDARENIQRFFGHGAEDSLADQAANEWGRSGKDPNHFRPAGLPEKY
B1: the “proliferation of AML cell lines” value with human AML cell lines is on record as “increased proliferation”. Further, the “IDO1 expression in OCI-AML3 leukemic cells” value in the data set on OCI-AML3 cells is listed as “able to upregulate IDO1 expression”. Also, the “% of Sub-G1 apoptotic cells” value in [2] (8-day treatment) is “reduced”. Moreover, the “proliferative rate of leukemic blasts (Edu+ cells, S-phase)” value in [2] (SAA1 100 μg/kg i.v., 2- and 8-day treatments) is “maintained and prominent increase”. In addition, in [2] (setting [6]), the G0-G1 cells result is “decrease” and the G2-M phase result is “unvarying”. For the same molecule, in data set [2] (completion of the 8-day treatment), the “increase in AML burden in the BM” value stood at 1.5 fold. Also, in data set [3], the “proliferation of human cells from CD34+ healthy-injected mice” value is on record as “unresponsive”. The “proliferation of patient-derived cells from AML-injected mice” value in [3] (versus vehicle) was “high proliferative activity”. Also, the “CYP1A1 and CYP1A2 gene expression” value in [3] (PDX-AML versus CD34+ healthy-injected mice) was “only upregulated in response to SAA1 in the human BM cells isolated from the PDX-AML”. The IDO1 expression result in [3] (PDX-AML versus PDX healthy cells) is “only upregulated in response to SAA1 in the PDX-AML isolated human cells”. Besides, the “Ido1 expression in WEHI-3B cells” value in the data set with WEHI-3B cells is reported as “able to upregulate Ido1 expression”. Further, the “IDO1 expression across human AML cell lines and MDS-L” value in data set [4] (SAA1) was “observed across several human AML cell lines as well as the MDS-L cell line”. The “expression of AHR target genes” value in data set [4] (SAA1 1 μg/ml o/n) is reported as “upregulated most of the main AHR targets genes”. In the data set on AML and MDS BM MNCs, the “IDO1 mRNA levels in patient-derived BM MNCs” value was “increased”; the “proliferation of lineage-depleted AML and MDS BM MNCs” value is listed as “promoted proliferation”.

B2: SAA3: recombinant mouse SAA3 (Cusabio), murine orthologue of SAA1 (protein, UniProt P04918 19-122, looked up)
Serum amyloid A-3 protein: QRWVQFMKEAGQGSRDMWRAYSDMKKANWKNSDKYFHARGNYDAARRGPGGAWAAKVISDAREAVQKFTGHGAEDSRADQFANEWGRSGKDPNHFRPAGLPKRY
In the case of B2, in the data set with WEHI-3B [5], the “proliferation of AML cell lines” value was “increased proliferation”. For the same molecule, the “Ido1 expression in WEHI-3B cells” value in the data set on WEHI-3B cells is listed as “upregulated Ido1 expression”.

(Values after patent publication US20240350669A1, “INHIBITION OF KYNURENINE SYNTHESIS AND/OR SIGNALING TO TREAT LEUKEMIA AND MYELODYSPLASIA” (THE TRUSTEES OF COLUMBIA UNIVERSITY IN THE CITY OF NEW YORK, priority 2022, published 2024).)
